T1: Epstein-Barr virus latent membrane protein 2 (LMP2) peptide on HLA-A11 (human)
T1 peptide: SSCSSCPLSK

T2: Epstein-Barr virus latent membrane protein 2 (LMP2) peptide on HLA-A24 (human)
T2 peptide: SSCSSCPLSK

B1: TCR-NPC-A11-003 (TCR, V domains shown)
Valpha: GIQVEQSPPDLILQEGANSTLRCNFSDSVNNLQWFHQNPWGQLINLFYIPSGTKQNGRLSATTVATERYSLLYISSSQTTDSGVYFCAVVNNNDMRFGAGTRLTVKP
Vbeta: DTEVTQTPKHLVMGMTNKKSLKCEQHMGHRAMYWYKQKAKKPPELMFVYSYEKLSINESVPSRFSPECPNSSLLNLHLHALQPEDSALYLCASSPGRWYEQFFGPGTRLTVL
B2: TCR-NPC-A11-125 (TCR, V domains shown)
Valpha: GIQVEQSPPDLILQEGANSTLRCNFSDSVNNLQWFHQNPWGQLINLFYIPSGTKQNGRLSATTVATERYSLLYISSSQTTDSGVYFCAVLNNNDMRFGAGTRLTVKP
Vbeta: DTEVTQTPKHLVMGMTNKKSLKCEQHMGHRAMYWYKQKAKKPPELMFVYSYEKLSINESVPSRFSPECPNSSLLNLHLHALQPEDSALYLCASSQGRWYEAFFGQGTRLTVV

Tests used:
[1] = target: T1, Epstein-Barr virus latent membrane …; test: killing
[2] = target: T2, Epstein-Barr virus latent membrane …; test: killing

Binder	binding result [1]	binding result [2]
B1	recognises	no recognition
B2	recognises	no recognition

Source: patent publication US20220056101A1 (published 2022)
